According to US20230365662A1:
Several values for one entry are separate records, joined by “and”; a condition that tells them apart may be missing. Equal values may be shown once.

Molecular target: HRgpA-6H (Porphyromonas gingivalis) (UniProt P28784)
Test: ELISA, FASEBA Fab on coated HRgpA-6H

Sequence of UniProt P28784 (P28784 228-991): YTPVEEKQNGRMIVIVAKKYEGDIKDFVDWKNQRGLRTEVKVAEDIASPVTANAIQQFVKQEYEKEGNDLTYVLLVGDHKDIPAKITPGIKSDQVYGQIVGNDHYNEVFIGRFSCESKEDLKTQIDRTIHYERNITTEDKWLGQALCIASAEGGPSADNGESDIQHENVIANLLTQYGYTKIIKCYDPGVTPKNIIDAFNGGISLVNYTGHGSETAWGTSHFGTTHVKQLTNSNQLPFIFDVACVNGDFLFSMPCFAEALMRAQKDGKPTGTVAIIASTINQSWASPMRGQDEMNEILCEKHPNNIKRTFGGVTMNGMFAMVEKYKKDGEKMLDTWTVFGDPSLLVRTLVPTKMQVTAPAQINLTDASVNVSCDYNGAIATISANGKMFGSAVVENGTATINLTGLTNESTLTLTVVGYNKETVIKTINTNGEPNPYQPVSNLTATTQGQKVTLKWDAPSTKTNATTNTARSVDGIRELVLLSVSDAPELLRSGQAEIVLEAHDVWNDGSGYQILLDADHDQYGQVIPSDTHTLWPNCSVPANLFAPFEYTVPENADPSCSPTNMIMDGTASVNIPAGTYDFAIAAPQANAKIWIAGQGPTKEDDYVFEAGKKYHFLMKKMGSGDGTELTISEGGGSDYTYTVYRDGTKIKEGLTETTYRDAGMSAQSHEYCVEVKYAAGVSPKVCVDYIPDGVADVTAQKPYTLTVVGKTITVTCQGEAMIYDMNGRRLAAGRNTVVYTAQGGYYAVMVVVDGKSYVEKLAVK

Binder	OD450nm	Ratio OD(Variant)/OD(WT)
KB001 mouse Fab VL S51G (Fab, V domains shown) VH: EVQLKQSGPGLVAPSQSLSITCTVSGFSLSIYSVHWVRQPPGKGLEWLGMIWGGGSSDYNSALKSRLSISKDNSKSQVFLKMNSLQTDDTAMYYCARNGNFYAMDYWGQGTSVTVSS VL: QIVLTQSPAIMSASLGERVTMTCTASSSVSSSFLHWYQQKPGSSPQLWIYGTSNLASGVPARFSGSGSGTSYSLTISSMEAEDAATYYCHQYHHSPYIYTFGGGTKLEIK	0.915 and 0.777 and 0.851	1.05 and 0.888 and 0.973
KB001 mouse Fab VL S57E (Fab, V domains shown) VH: EVQLKQSGPGLVAPSQSLSITCTVSGFSLSIYSVHWVRQPPGKGLEWLGMIWGGGSSDYNSALKSRLSISKDNSKSQVFLKMNSLQTDDTAMYYCARNGNFYAMDYWGQGTSVTVSS VL: QIVLTQSPAIMSASLGERVTMTCTASSSVSSSFLHWYQQKPGSSPQLWIYSTSNLAEGVPARFSGSGSGTSYSLTISSMEAEDAATYYCHQYHHSPYIYTFGGGTKLEIK	0.843	1.03
KB001 mouse Fab VL L55P (Fab, V domains shown) VH: EVQLKQSGPGLVAPSQSLSITCTVSGFSLSIYSVHWVRQPPGKGLEWLGMIWGGGSSDYNSALKSRLSISKDNSKSQVFLKMNSLQTDDTAMYYCARNGNFYAMDYWGQGTSVTVSS VL: QIVLTQSPAIMSASLGERVTMTCTASSSVSSSFLHWYQQKPGSSPQLWIYSTSNPASGVPARFSGSGSGTSYSLTISSMEAEDAATYYCHQYHHSPYIYTFGGGTKLEIK	0.827 and 0.764 and 0.724	1.06 and 0.975 and 0.924
KB001 mouse Fab VL S57T (Fab, V domains shown) VH: EVQLKQSGPGLVAPSQSLSITCTVSGFSLSIYSVHWVRQPPGKGLEWLGMIWGGGSSDYNSALKSRLSISKDNSKSQVFLKMNSLQTDDTAMYYCARNGNFYAMDYWGQGTSVTVSS VL: QIVLTQSPAIMSASLGERVTMTCTASSSVSSSFLHWYQQKPGSSPQLWIYSTSNLATGVPARFSGSGSGTSYSLTISSMEAEDAATYYCHQYHHSPYIYTFGGGTKLEIK	0.843	1.03
KB001 mouse Fab VL T52A (Fab, V domains shown) VH: EVQLKQSGPGLVAPSQSLSITCTVSGFSLSIYSVHWVRQPPGKGLEWLGMIWGGGSSDYNSALKSRLSISKDNSKSQVFLKMNSLQTDDTAMYYCARNGNFYAMDYWGQGTSVTVSS VL: QIVLTQSPAIMSASLGERVTMTCTASSSVSSSFLHWYQQKPGSSPQLWIYSASNLASGVPARFSGSGSGTSYSLTISSMEAEDAATYYCHQYHHSPYIYTFGGGTKLEIK		1.17 and 1.08 (2×) and 0.993
KB001 mouse Fab VL S57P (Fab, V domains shown) VH: EVQLKQSGPGLVAPSQSLSITCTVSGFSLSIYSVHWVRQPPGKGLEWLGMIWGGGSSDYNSALKSRLSISKDNSKSQVFLKMNSLQTDDTAMYYCARNGNFYAMDYWGQGTSVTVSS VL: QIVLTQSPAIMSASLGERVTMTCTASSSVSSSFLHWYQQKPGSSPQLWIYSTSNLAPGVPARFSGSGSGTSYSLTISSMEAEDAATYYCHQYHHSPYIYTFGGGTKLEIK	0.858	1.05
KB001 mouse Fab VL L55N (Fab, V domains shown) VH: EVQLKQSGPGLVAPSQSLSITCTVSGFSLSIYSVHWVRQPPGKGLEWLGMIWGGGSSDYNSALKSRLSISKDNSKSQVFLKMNSLQTDDTAMYYCARNGNFYAMDYWGQGTSVTVSS VL: QIVLTQSPAIMSASLGERVTMTCTASSSVSSSFLHWYQQKPGSSPQLWIYSTSNNASGVPARFSGSGSGTSYSLTISSMEAEDAATYYCHQYHHSPYIYTFGGGTKLEIK	0.816 and 0.815 and 0.777	1.04 (2×) and 0.992
KB001 mouse Fab VL S53N (Fab, V domains shown) VH: EVQLKQSGPGLVAPSQSLSITCTVSGFSLSIYSVHWVRQPPGKGLEWLGMIWGGGSSDYNSALKSRLSISKDNSKSQVFLKMNSLQTDDTAMYYCARNGNFYAMDYWGQGTSVTVSS VL: QIVLTQSPAIMSASLGERVTMTCTASSSVSSSFLHWYQQKPGSSPQLWIYSTNNLASGVPARFSGSGSGTSYSLTISSMEAEDAATYYCHQYHHSPYIYTFGGGTKLEIK	0.838 and 0.707	1.06 and 0.898
KB001 mouse Fab VL S53H (Fab, V domains shown) VH: EVQLKQSGPGLVAPSQSLSITCTVSGFSLSIYSVHWVRQPPGKGLEWLGMIWGGGSSDYNSALKSRLSISKDNSKSQVFLKMNSLQTDDTAMYYCARNGNFYAMDYWGQGTSVTVSS VL: QIVLTQSPAIMSASLGERVTMTCTASSSVSSSFLHWYQQKPGSSPQLWIYSTHNLASGVPARFSGSGSGTSYSLTISSMEAEDAATYYCHQYHHSPYIYTFGGGTKLEIK	0.827 and 0.777	1.05 and 0.987
KB001 mouse Fab VL S53Q (Fab, V domains shown) VH: EVQLKQSGPGLVAPSQSLSITCTVSGFSLSIYSVHWVRQPPGKGLEWLGMIWGGGSSDYNSALKSRLSISKDNSKSQVFLKMNSLQTDDTAMYYCARNGNFYAMDYWGQGTSVTVSS VL: QIVLTQSPAIMSASLGERVTMTCTASSSVSSSFLHWYQQKPGSSPQLWIYSTQNLASGVPARFSGSGSGTSYSLTISSMEAEDAATYYCHQYHHSPYIYTFGGGTKLEIK	0.835 and 0.751 and 0.726	1.06 and 0.954 and 0.922
KB001 mouse Fab VL N54Q (Fab, V domains shown) VH: EVQLKQSGPGLVAPSQSLSITCTVSGFSLSIYSVHWVRQPPGKGLEWLGMIWGGGSSDYNSALKSRLSISKDNSKSQVFLKMNSLQTDDTAMYYCARNGNFYAMDYWGQGTSVTVSS VL: QIVLTQSPAIMSASLGERVTMTCTASSSVSSSFLHWYQQKPGSSPQLWIYSTSQLASGVPARFSGSGSGTSYSLTISSMEAEDAATYYCHQYHHSPYIYTFGGGTKLEIK	0.868	1.11
KB001 mouse Fab VL N54R (Fab, V domains shown) VH: EVQLKQSGPGLVAPSQSLSITCTVSGFSLSIYSVHWVRQPPGKGLEWLGMIWGGGSSDYNSALKSRLSISKDNSKSQVFLKMNSLQTDDTAMYYCARNGNFYAMDYWGQGTSVTVSS VL: QIVLTQSPAIMSASLGERVTMTCTASSSVSSSFLHWYQQKPGSSPQLWIYSTSRLASGVPARFSGSGSGTSYSLTISSMEAEDAATYYCHQYHHSPYIYTFGGGTKLEIK	0.876	1.12
KB001 mouse Fab VL S57G (Fab, V domains shown) VH: EVQLKQSGPGLVAPSQSLSITCTVSGFSLSIYSVHWVRQPPGKGLEWLGMIWGGGSSDYNSALKSRLSISKDNSKSQVFLKMNSLQTDDTAMYYCARNGNFYAMDYWGQGTSVTVSS VL: QIVLTQSPAIMSASLGERVTMTCTASSSVSSSFLHWYQQKPGSSPQLWIYSTSNLAGGVPARFSGSGSGTSYSLTISSMEAEDAATYYCHQYHHSPYIYTFGGGTKLEIK	0.873 and 0.825	1.07 and 1.01
KB001 mouse Fab VL S57R (Fab, V domains shown) VH: EVQLKQSGPGLVAPSQSLSITCTVSGFSLSIYSVHWVRQPPGKGLEWLGMIWGGGSSDYNSALKSRLSISKDNSKSQVFLKMNSLQTDDTAMYYCARNGNFYAMDYWGQGTSVTVSS VL: QIVLTQSPAIMSASLGERVTMTCTASSSVSSSFLHWYQQKPGSSPQLWIYSTSNLARGVPARFSGSGSGTSYSLTISSMEAEDAATYYCHQYHHSPYIYTFGGGTKLEIK	0.845 and 0.849	1.04
KB001 mouse Fab VL S57Q (Fab, V domains shown) VH: EVQLKQSGPGLVAPSQSLSITCTVSGFSLSIYSVHWVRQPPGKGLEWLGMIWGGGSSDYNSALKSRLSISKDNSKSQVFLKMNSLQTDDTAMYYCARNGNFYAMDYWGQGTSVTVSS VL: QIVLTQSPAIMSASLGERVTMTCTASSSVSSSFLHWYQQKPGSSPQLWIYSTSNLAQGVPARFSGSGSGTSYSLTISSMEAEDAATYYCHQYHHSPYIYTFGGGTKLEIK	0.858 and 0.838	1.05 and 1.03
KB001 mouse Fab VL H90W (Fab, V domains shown) VH: EVQLKQSGPGLVAPSQSLSITCTVSGFSLSIYSVHWVRQPPGKGLEWLGMIWGGGSSDYNSALKSRLSISKDNSKSQVFLKMNSLQTDDTAMYYCARNGNFYAMDYWGQGTSVTVSS VL: QIVLTQSPAIMSASLGERVTMTCTASSSVSSSFLHWYQQKPGSSPQLWIYSTSNLASGVPARFSGSGSGTSYSLTISSMEAEDAATYYCWQYHHSPYIYTFGGGTKLEIK	0.913	1.06
KB001 mouse Fab VL S57N (Fab, V domains shown) VH: EVQLKQSGPGLVAPSQSLSITCTVSGFSLSIYSVHWVRQPPGKGLEWLGMIWGGGSSDYNSALKSRLSISKDNSKSQVFLKMNSLQTDDTAMYYCARNGNFYAMDYWGQGTSVTVSS VL: QIVLTQSPAIMSASLGERVTMTCTASSSVSSSFLHWYQQKPGSSPQLWIYSTSNLANGVPARFSGSGSGTSYSLTISSMEAEDAATYYCHQYHHSPYIYTFGGGTKLEIK	0.857	1.05
KB001 mouse Fab VL N54S (Fab, V domains shown) VH: EVQLKQSGPGLVAPSQSLSITCTVSGFSLSIYSVHWVRQPPGKGLEWLGMIWGGGSSDYNSALKSRLSISKDNSKSQVFLKMNSLQTDDTAMYYCARNGNFYAMDYWGQGTSVTVSS VL: QIVLTQSPAIMSASLGERVTMTCTASSSVSSSFLHWYQQKPGSSPQLWIYSTSSLASGVPARFSGSGSGTSYSLTISSMEAEDAATYYCHQYHHSPYIYTFGGGTKLEIK	0.835 and 0.732 and 0.776	1.07 and 0.934 and 0.99
KB001 mouse Fab VL T52S (Fab, V domains shown) VH: EVQLKQSGPGLVAPSQSLSITCTVSGFSLSIYSVHWVRQPPGKGLEWLGMIWGGGSSDYNSALKSRLSISKDNSKSQVFLKMNSLQTDDTAMYYCARNGNFYAMDYWGQGTSVTVSS VL: QIVLTQSPAIMSASLGERVTMTCTASSSVSSSFLHWYQQKPGSSPQLWIYSSSNLASGVPARFSGSGSGTSYSLTISSMEAEDAATYYCHQYHHSPYIYTFGGGTKLEIK	0.833	1.06
KB001 mouse Fab VL S53K (Fab, V domains shown) VH: EVQLKQSGPGLVAPSQSLSITCTVSGFSLSIYSVHWVRQPPGKGLEWLGMIWGGGSSDYNSALKSRLSISKDNSKSQVFLKMNSLQTDDTAMYYCARNGNFYAMDYWGQGTSVTVSS VL: QIVLTQSPAIMSASLGERVTMTCTASSSVSSSFLHWYQQKPGSSPQLWIYSTKNLASGVPARFSGSGSGTSYSLTISSMEAEDAATYYCHQYHHSPYIYTFGGGTKLEIK	0.841	1.07
